What was measured:
[1] = target: human CD16A-Fc^48R/158V fusion protein (human) (UniProt P08637); experiment: SPR, BIAcore 2000, CD16A-Fc immobilized on CM5, koff/kon
[2] = target: human CD16A-Fc^48R/158V fusion protein (human) (UniProt P08637); experiment: SPR, BIAcore 2000, CD16A-Fc immobilized on CM5, 1:1 Langmuir
[3] = target: CD16B-Fc^SH (human) (UniProt O75015); experiment: SPR, BIAcore 2000, antigen immobilized
[4] = target: human CD16A-Fc^48R/158V fusion protein (human) (UniProt P08637); experiment: SPR, BIAcore 2000, antigen immobilized
[5] = target: CD16B-Fc^NA2 (human) (UniProt O75015); experiment: SPR, BIAcore 2000, antigen immobilized
[6] = target: human CD16A-Fc^48R/158F fusion protein (human) (UniProt P08637); experiment: SPR, BIAcore 2000, antigen immobilized
[7] = target: CD16B-Fc^NA1 (human) (UniProt O75015); experiment: SPR, BIAcore 2000, antigen immobilized
[8] = target: CD16B-Fc^SH (human) (UniProt O75015); experiment: SPR, BIAcore 2000, antigen immobilized, koff/kon
[9] = target: human CD16A-Fc^48R/158V fusion protein (human) (UniProt P08637); experiment: SPR, BIAcore 2000, antigen immobilized, koff/kon
[10] = target: CD16B-Fc^NA2 (human) (UniProt O75015); experiment: SPR, BIAcore 2000, antigen immobilized, koff/kon
[11] = target: human CD16A-Fc^48R/158F fusion protein (human) (UniProt P08637); experiment: SPR, BIAcore 2000, antigen immobilized, koff/kon
[12] = target: CD16B-Fc^NA1 (human) (UniProt O75015); experiment: SPR, BIAcore 2000, antigen immobilized, koff/kon
[13] = target: native CD16A on human peripheral blood NK cells (human) (UniProt P08637); experiment: cell-based or functional assay
Sequence of native CD16A on human peripheral blood NK cells (human) (P08637 17-254): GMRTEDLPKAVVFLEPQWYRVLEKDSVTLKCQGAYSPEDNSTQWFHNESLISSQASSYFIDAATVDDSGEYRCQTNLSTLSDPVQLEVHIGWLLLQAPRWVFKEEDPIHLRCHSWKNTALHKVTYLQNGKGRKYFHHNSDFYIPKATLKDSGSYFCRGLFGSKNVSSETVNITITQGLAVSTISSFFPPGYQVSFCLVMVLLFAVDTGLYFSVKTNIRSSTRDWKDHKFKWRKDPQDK

Sequence of CD16B-Fc^SH (human) (O75015 17-200 N65S/A78D): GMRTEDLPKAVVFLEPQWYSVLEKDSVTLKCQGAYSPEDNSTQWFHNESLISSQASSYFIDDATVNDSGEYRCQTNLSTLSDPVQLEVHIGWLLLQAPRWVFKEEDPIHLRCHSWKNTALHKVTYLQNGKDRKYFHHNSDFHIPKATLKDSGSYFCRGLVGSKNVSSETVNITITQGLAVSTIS
Sequence of human CD16A-Fc^48R/158V fusion protein (human) (P08637 17-208 L66R/F176V limits assumed): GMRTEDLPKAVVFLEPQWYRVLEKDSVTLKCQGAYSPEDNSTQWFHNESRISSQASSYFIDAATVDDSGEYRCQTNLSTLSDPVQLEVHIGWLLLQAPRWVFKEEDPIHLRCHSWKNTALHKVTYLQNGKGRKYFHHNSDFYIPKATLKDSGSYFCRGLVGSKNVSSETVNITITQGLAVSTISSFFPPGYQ
Sequence of CD16B-Fc^NA1 (human) (O75015 other isoform, or with tags, fused parts or gaps): as the sequence (O75015 17-200 N65S/A78D) above, with S20R, S49N, D62A, N66D, I90V counted along it
Sequence of human CD16A-Fc^48R/158F fusion protein (human) (P08637 17-208): as the sequence (P08637 17-208 L66R/F176V limits assumed) above, with R50L, V160F counted along it
Sequence of CD16B-Fc^NA2 (human) (O75015 17-200 N65S): as the sequence (O75015 17-200 N65S/A78D) above, with D62A counted along it

Kd [1]: 1.75 nM | koff [2]: 0.000177 s⁻¹ | kon [2]: 101000 M⁻¹ s⁻¹ | koff [3]: 0.000528 s⁻¹ | kon [3]: 77900 M⁻¹ s⁻¹ | koff [4]: 0.000406 s⁻¹ | kon [4]: 78600 M⁻¹ s⁻¹ | koff [5]: 0.000478 s⁻¹ | kon [5]: 75700 M⁻¹ s⁻¹ | koff [6]: 0.00038 s⁻¹ | kon [6]: 99400 M⁻¹ s⁻¹ | koff [7]: 0.000487 s⁻¹ | kon [7]: 77200 M⁻¹ s⁻¹ | Kd [8]: 11.4 nM | Kd [9]: 5.17 nM | Kd [10]: 9.63 nM | Kd [11]: 3.82 nM | Kd [12]: 8.91 nM | lysis of P815 targets by NK cells (calcein release), 1 µg/mL antibody [13]: 65%
Substance: anti-CD16 murine monoclonal antibody A9
